Test results as given in article PMC2572732, “Structural Coupling of SH2-Kinase Domains Links Fes and Abl Substrate Recognition and Kinase Activation” (Cell, 2008).
Residue numbers refer to the chain shown, from its start. In names and notes the source's numbering stands.

System: Fes; GST-cortactin (residues 382–550)
Test: In vivo kinase assay: Fes autophosphorylation and GST-cortactin phosphorylation in transfected HEK293T cells
Format: cell-based, human
Settings: in words; for Fes kinase activity (autophosphorylation and cortactin phosphorylation): full-length Flag-Fes, HEK293T, 24 hr, western blot anti-pTyr
Source text: To pursue the relevance of the observed interdomain interactions, we studied the effects of mutating residues in the SH2-kinase interface on human Fes activity. To this end, we monitored Fes autophosphorylation and transphosphorylation activity in transfected cells, using cortactin (residues 382–550) fused to GST as an exogenous substrate (Figures 2A and 2B). In an effort to perturb the close interaction between the SH2 and kinase domains, we mutated the conserved glycine residue (G463) located in the tightly packed interface between the SH2 N terminus and the kinase β4/β5 loop to valine (mutant G/V). Introducing this bulky side chain would be expected to sterically hinder alignment of the SH2 and kinase domains, resulting in an altered domain packing. Wild-type (WT) and G/V mutant full-length human Fes, each with an N-terminal Flag epitope, were expressed in HEK293T cells together with GST-cortactin.
Wild-type p130^Gag-Fps and the RX15m and AX9m mutants ([Stone et al., 1984]) were subcloned into the vector pRK5-myc ([Winberg et al., 2000]). Full-length human Fes was cloned into the vector pCMV7.1-3xFlag (Sigma, St. Louis, MO). Site-directed mutagenesis was performed using the QuickChange® II XL Kit (Stratagene, La Jolla, CA) following the manufacturer's directions. A GST-tagged C-terminal fragment of human cortactin (residues 382–550, accession Q14247) was prepared by PCR from cDNA (accession BC008799) and cloned into pEBG vector (gift from C. Duckett, University of Michigan Medical School, Ann Arbor).
HEK293T cells were maintained in Dulbecco's modified Eagle's medium supplemented with 10% (vol/vol) fetal bovine serum, 100 units/ml penicillin G sodium, and 100 μg/ml streptomycin and incubated at 37°C, 5% CO2.
Flag-tagged Fes or Myc-tagged p130^Gag-Fps and mutants thereof were cotransfected with GST-cortactin into HEK293T cells. After 24 hr, cells were lysed with NP-40 cell lysis buffer (50 mM Tris-HCl [pH 7.5], 150 mM NaCl, 1% NP-40, and 1 mM EDTA) that contained 1 mM phenylmethylsulfonyl fluoride, 10 μg/ml leupeptin, 10 μg/ml aprotinin, and 10 μg/ml pepstatin A. Cell lysates, normalized for protein concentration, were used in anti-Flag M2 antibody-agarose (Sigma) or anti-Myc antibody immunoprecipitations or glutathione sepharose affinity precipitations. Associated proteins were resolved using SDS-PAGE and analyzed by western blotting using anti-Flag M2 (Sigma), anti-c-Myc 9E10 (Santa Cruz), HRP-conjugated anti-GST (Santa Cruz), or anti-pTyr 4G10 (Upstate) antibodies.

B1: WT: Wild-type full-length human Fes with N-terminal Flag epitope (protein, UniProt P07332 1-822, looked up)
chain: MGFSSELCSPQGHGVLQQMQEAELRLLEGMRKWMAQRVKSDREYAGLLHHMSLQDSGGQSRAISPDSPISQSWAEITSQTEGLSRLLRQHAEDLNSGPLSKLSLLIRERQQLRKTYSEQWQQLQQELTKTHSQDIEKLKSQYRALARDSAQAKRKYQEASKDKDRDKAKDKYVRSLWKLFAHHNRYVLGVRAAQLHHQHHHQLLLPGLLRSLQDLHEEMACILKEILQEYLEISSLVQDEVVAIHREMAAAAARIQPEAEYQGFLRQYGSAPDVPPCVTFDESLLEEGEPLEPGELQLNELTVESVQHTLTSVTDELAVATEMVFRRQEMVTQLQQELRNEEENTHPRERVQLLGKRQVLQEALQGLQVALCSQAKLQAQQELLQTKLEHLGPGEPPPVLLLQDDRHSTSSSEQEREGGRTPTLEILKSHISGIFRPKFSLPPPLQLIPEVQKPLHEQLWYHGAIPRAEVAELLVHSGDFLVRESQGKQEYVLSVLWDGLPRHFIIQSLDNLYRLEGEGFPSIPLLIDHLLSTQQPLTKKSGVVLHRAVPKDKWVLNHEDLVLGEQIGRGNFGEVFSGRLRADNTLVAVKSCRETLPPDLKAKFLQEARILKQYSHPNIVRLIGVCTQKQPIYIVMELVQGGDFLTFLRTEGARLRVKTLLQMVGDAAAGMEYLESKCCIHRDLAARNCLVTEKNVLKISDFGMSREEADGVYAASGGLRQVPVKWTAPEALNYGRYSSESDVWSFGILLWETFSLGASPYPNLSNQQTREFVEKGGRLPCPELCPDAVFRLMEQCWAYEPGQRPSFSTIYQELQSIRKRHR
modifications: full-length N-terminal Flag tag
With B1 the “Fes kinase activity (autophosphorylation and cortactin phosphorylation)” value (“Fes kinase activity” below) was “active”.

B2: G/V: Fes mutant, conserved glycine residue (G463) mutated to valine (protein, UniProt P07332 1-822, looked up, variant G463V)
Tyrosine-protein kinase …: B1 chain with G463V
B2 was tested, and the “Fes kinase activity” value was “completely inactive”.

B3: E469K: Fes E469K mutant (protein, UniProt P07332 1-822, looked up, variant E469K)
Tyrosine-protein kinase …: B1 chain with E469K
With B3 the “Fes kinase activity” value was “reduced tyrosine kinase activity”.

B4: E472K: Fes E472K mutant (protein, UniProt P07332 1-822, looked up, variant E472K)
Tyrosine-protein kinase …: B1 chain with E472K
For B4, the “Fes kinase activity” value was “not significantly impaired”.

B5: EE/KK: Fes double mutant, E469 and E472 to lysine (protein)
chain: WYHGAIPRAKVAKLLVHSGDFLVRESQGKQEYVLSVLWDGLPRHFIIQSLDNLYRLEGEGFPSIPLLIDHLLSTQQPLTKKSGVVLHRAV
With B5 the “Fes kinase activity” value was “strongly reduced Fes kinase activity”.

B6: EER/KKE: Fes triple mutant: EE/KK plus R609 in αC helix to glutamate (protein, UniProt P07332 1-822, looked up, variant E469K E472K R609E)
Tyrosine-protein kinase …: B1 chain with E469K, E472K, R609E
B6 was tested, and the “Fes kinase activity” value was “regained kinase activity to a level approaching wild-type”.

B7: R/M: Fes with R483 in the SH2 pTyr-binding pocket substituted with methionine (protein, UniProt P07332 1-822, looked up, variant R483M)
Tyrosine-protein kinase …: B1 chain with R483M
B7 was tested, and the Fes autophosphorylation (Flag-Fes, HEK293T cells, anti-pTyr western blot) was “failed to autophosphorylate” and the transphosphorylation of cortactin (GST-cortactin, HEK293T cells, anti-pTyr western blot) was “significantly reduced ability to transphosphorylate cortactin”.
